Experimental data as given in US20230014722A1 (CSTONE PHARMACEUTICALS, published 2023).

What was measured:
[1] = molecular target: cynomolgus PD-1 (Sino Biological), coated on plates (cynomolgus, UniProt B0LAJ3 25-170); assay: ELISA, plates coated with cynomolgus PD-1 at 1 µg/ml
Procedure: (§1) For ELISA, plates (Nunc) were coated with human, cynomolgus or mouse PD-1 (Sino Biological) at 1 μg/ml overnight at 4° C. After blocking and washing, antibodies were serially diluted in blocking buffer and added to the plates and incubated at room temperature for 1 h. The plates were then washed and subsequently incubated with secondary antibody goat anti human IgG HRP (Bethyl) for 1 h. After washing, TMB substrate was added and the reaction was stopped by 2 M HCl. The absorbance at 450 nm was read using a microplate reader (Molecular Device).

[2] = molecular target: T1, human PD-1 on transfected cells (human, UniProt Q15116 25-288); assay: flow cytometry on CHO-S cells expressing human PD-1, quantitative beads
T1 construct: also called CHO-S cells expressing human PD-1; human PD-1 transfected CHO-S cells
Procedure: (§2) Testing antibodies were 1:2 serially diluted in wash buffer (1×PBS/1% BSA) and incubated with cells at 4° C. for 1 h.

[3] = molecular target: T2, human CTLA-4 on a constructed cell line (human, UniProt P16410 36-223); assay: FACS, CTLA-4.293F cells, one antibody concentration (not given)
T2 construct: whole, on cells
Procedure: (§3) Constructed cell lines that respectively express human PD-1, CD28, CTLA-4 or ICOS were transferred in to 96-well U-bottom plates (BD) at a density of 2×10⁵ cells/well. Testing antibodies were diluted in wash buffer (1×PBS/1% BSA) and incubated with cells at 4° C. for 1 h. After washing, the secondary antibody goat anti-human IgG Fc FITC (Jackson ImmunoResearch Lab) was added and incubated at 4° C. in the dark for 1 h. The cells were then washed once and resuspended in 1×PBS/1% BSA, and analyzed by flow cytometery (BD) and FlowJo software.

[4] = molecular target: T3, mPD-1.His (mouse, UniProt Q02242 25-167, limits assumed); assay: SPR (ProteOn XPR36), antibody captured on Protein A, PD-1.His as analyte, 1:1 fit
T3 construct: Soluble analyte, probably the extracellular domain; also called mouse PD-1 (SPR analyte)
T3 sequence (looked up): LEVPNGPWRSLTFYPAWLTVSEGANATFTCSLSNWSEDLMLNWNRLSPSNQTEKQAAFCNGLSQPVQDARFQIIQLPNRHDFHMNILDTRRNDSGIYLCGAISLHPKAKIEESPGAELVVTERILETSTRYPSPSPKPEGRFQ
Source text: (§4) Antibodies were characterized for affinity and binding kinetics to PD-1 by SPR assay using ProteOn XPR36 (Bio-Rad). Protein A protein (Sigma) was immobilized to a GLM sensor chip (Bio-Rad) through amine coupling. Purified antibodies were flowed over the sensor chip and captured by the Protein A. The chip was rotated […] and washed with running buffer (1×PBS/0.01% Tween20, Bio-Rad) until the baseline was stable. Seven concentrations of human PD-1 and running buffer were flowed through the sensor chip at a flow rate of 30 μL/min for an association phase of 180 s, followed by 300s dissociation. After regeneration, seven concentration of mouse PD-1 and running buffer were flowed through the sensor chip at a flow rate of 30 μL/min for an association phase of 180 s, followed by 300 s dissociation. The chip was regenerated with pH 1.5 H₃PO₄ after each run. The association and dissociation curve was fit by 1:1 Langmuir binding model using ProteOn software.

[5] = molecular target: T4, hPD-1.His (human, UniProt Q15116 25-170); assay: as above
T4 construct: the SPR text says only human PD-1; also called human PD-1 (SPR analyte)
Source text: as §4

[6] = molecular target: T5, mouse PD-1 on transfected 293F cells (mouse, UniProt Q02242 25-288); assay: FACS, mouse PD-1 transfected 293F cells
T5 construct: whole, on cells; also called cell surface mouse PD-1
T5 sequence (looked up): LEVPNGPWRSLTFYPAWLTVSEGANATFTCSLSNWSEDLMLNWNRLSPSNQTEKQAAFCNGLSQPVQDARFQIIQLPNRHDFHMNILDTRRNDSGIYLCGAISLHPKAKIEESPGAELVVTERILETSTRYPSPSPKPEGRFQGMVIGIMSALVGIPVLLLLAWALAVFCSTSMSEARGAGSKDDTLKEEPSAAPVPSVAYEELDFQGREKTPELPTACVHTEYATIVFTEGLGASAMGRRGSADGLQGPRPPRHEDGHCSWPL

[7] = molecular target: T1, human PD-1 on transfected cells; assay: FACS, human PD-1 transfected CHO-S cells
[8] = molecular target: T6, mouse PD-1 antigen protein of the affinity-maturation screen (mouse, UniProt Q02242 25-167, limits assumed, biotinylated); assay: capture ELISA, second-round affinity-maturation screen (scFv format likely); unit not given
T6 sequence (looked up): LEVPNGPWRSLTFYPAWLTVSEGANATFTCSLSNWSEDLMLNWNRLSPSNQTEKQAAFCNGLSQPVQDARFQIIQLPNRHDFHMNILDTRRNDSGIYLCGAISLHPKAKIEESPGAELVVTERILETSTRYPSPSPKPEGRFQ

[9] = molecular target: human PD-1 antigen protein of the affinity-maturation screen (human, UniProt Q15116 25-167, limits assumed, biotinylated); assay: as above
[10] = molecular target: cynomolgus PD-1 antigen protein of the affinity-maturation screen (cynomolgus); assay: as above
[11] = molecular target: T5, mouse PD-1 on transfected 293F cells; assay: FACS blocking assay: mouse Fc fusion-mouse PD-L1 binding to mouse PD-1 transfected 293F cells
[12] = molecular target: T1, human PD-1 on transfected cells; assay: FACS blocking assay: mouse Fc fusion-human PD-L1 binding to human PD-1 transfected CHO-S cells
[13] = molecular target: T1, human PD-1 on transfected cells; assay: FACS competition on CHO-S cells expressing human PD-1 against biotinylated WBP305BMK1 at 1 µg/ml
Procedure: (§5) The cells were washed and the second antibody Streptavidin-PE were added and incubated for 30 min at 4° C. The cells were then washed once and resuspended in 1×PBS/1% BSA, and analyzed by flow cytometery (BD).

[14] = molecular target: T1, human PD-1 on transfected cells; assay: FACS competition on CHO-S cells expressing human PD-1 against biotinylated Keytruda at 1 µg/ml
Procedure: as §5

[15] = molecular target: T7, human CD28 on a constructed cell line (human, UniProt P10747 19-220); assay: FACS, CD28.CHO-K1 cells, one antibody concentration (not given)
T7 construct: whole, on cells
Procedure: as §3

[16] = molecular target: T8, mouse PD-1 (Sino Biological), coated on plates (mouse, UniProt Q02242 25-167); assay: ELISA, plates coated with mouse PD-1 at 1 µg/ml
T8 sequence (looked up): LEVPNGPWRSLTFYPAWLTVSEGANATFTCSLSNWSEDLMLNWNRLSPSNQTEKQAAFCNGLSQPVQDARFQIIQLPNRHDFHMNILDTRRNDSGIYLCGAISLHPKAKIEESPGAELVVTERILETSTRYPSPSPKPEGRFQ
Procedure: as §1

[17] = molecular target: T9, human PD-1 (Sino Biological), coated on plates (human, UniProt Q15116 25-167); assay: ELISA, plates coated with human PD-1 at 1 µg/ml
T9 construct: whole entry named
Procedure: as §1

[18] = molecular target: T5, mouse PD-1 on transfected 293F cells; assay: flow cytometry on 293F cells expressing mouse PD-1, quantitative beads
Procedure: as §2

T4 sequence (Q15116 25-170): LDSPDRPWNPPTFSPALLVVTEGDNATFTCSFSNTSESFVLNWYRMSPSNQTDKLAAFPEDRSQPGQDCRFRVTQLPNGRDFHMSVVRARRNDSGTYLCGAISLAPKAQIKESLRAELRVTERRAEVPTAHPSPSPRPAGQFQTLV
T1 sequence (Q15116 25-288 limits assumed): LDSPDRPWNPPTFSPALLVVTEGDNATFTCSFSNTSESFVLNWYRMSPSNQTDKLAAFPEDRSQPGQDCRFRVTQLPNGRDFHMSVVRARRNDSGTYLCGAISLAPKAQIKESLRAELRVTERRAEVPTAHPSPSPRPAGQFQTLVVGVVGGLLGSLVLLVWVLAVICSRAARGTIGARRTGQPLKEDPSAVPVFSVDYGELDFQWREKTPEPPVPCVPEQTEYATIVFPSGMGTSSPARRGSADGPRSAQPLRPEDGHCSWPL
Sequence of human PD-1 antigen protein of the affinity-maturation screen (Q15116 25-167 limits assumed): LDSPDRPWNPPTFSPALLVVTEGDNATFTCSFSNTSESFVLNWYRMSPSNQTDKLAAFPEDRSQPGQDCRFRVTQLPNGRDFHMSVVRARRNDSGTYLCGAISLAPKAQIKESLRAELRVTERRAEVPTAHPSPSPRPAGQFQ
T2 sequence (P16410 36-223): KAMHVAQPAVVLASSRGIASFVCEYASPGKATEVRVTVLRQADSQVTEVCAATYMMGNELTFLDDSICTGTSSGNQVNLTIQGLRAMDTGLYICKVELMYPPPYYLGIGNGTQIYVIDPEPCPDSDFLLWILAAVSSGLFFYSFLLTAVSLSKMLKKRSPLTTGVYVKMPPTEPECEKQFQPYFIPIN
Sequence of cynomolgus PD-1 (Sino Biological), coated on plates (B0LAJ3 entry or part of it limits assumed): as the sequence (Q15116 25-170) above, with D2E, P10A, V19L, T35A, Q75R, T144A counted along it
T9 sequence (Q15116 25-167 limits assumed): as the sequence (Q15116 25-167 limits assumed) above

B1: 2E5 (antibody, human IgG4, V domains shown)
VH: QVQLVQSGAEVKKPGSSVKVSCKASGFTFTTYYISWVRQAPGQGLEYLGYINMGSGGTNYNEKFKGRVTITADKSTSTAYMELSSLRSEDTAVYYCAIIGYFDYWGQGTMVTVSS
VL: DVVMTQSPLSLPVTLGQPASISCRSSQSLLDSDGGTYLYWFQQRPGQSPRRLIYLVSTLGSGVPDRFSGSGSGTDFTLKISRVEAEDVGVYYCMQLTHWPYTFGQGTKLEIK
[1]
  EC50: 0.25 nM
[2]
  Kd: 0.23 nM
[3]
  binding result: no binding
[4]
  Kd: 3.99 nM
  koff: 0.00129 s⁻¹
  kon: 323000 M⁻¹ s⁻¹
[5]
  Kd: 6.13 nM
  koff: 0.00366 s⁻¹
  kon: 597000 M⁻¹ s⁻¹
[6]
  EC50: 12.9 nM
[7]
  EC50: 2.2 nM
[8]
  Bmax: 0.47
[9]
  Bmax: 3.28
[10]
  Bmax: 1.72
[11]
  IC50: 13 nM
[12]
  IC50: 2.14 nM
[13]
  IC50: 5.84 nM
[14]
  IC50: 9.52 nM
[15]
  binding result: no binding
[16]
  EC50: 0.37 nM
[17]
  EC50: 0.18 nM
[18]
  Kd: 29 nM

B2: 2B1 (antibody, V domains shown)
VH: QVQLVQSGAEVKKPGSSVKVSCKASGFTFTTYYISWVRQAPGQGLEYLGYINMGSGGTNYNEKFKGRVTITADKSTSTAYMELSSLRSEDTAVYYCAIIGYFDYWGQGTMVTVSS
VL: DVVMTQSPLSLPVTLGQPASISCRSSQSLLDSDGNTYLYWFQQRPGQSPRRLIYLVSTLGSGVPDRFSGSGSGTDFTLKISRVEAEDVGVYYCMQLTHWPYTFGQGTKLEIK
[8]
  Bmax: 0.339
[9]
  Bmax: 3.02
[10]
  Bmax: 1.21

B3: 1G10 (antibody, V domains shown)
VH: QVQLVQSGAEVKKPGSSVKVSCKASGFTFTTYYISWVRQAPGQGLEYLGYINMGSGGTNYNEKFKGRVTITADKSTSTAYMELSSLRSEDTAVYYCAILGYFDYWGQGTMVTVSS
VL: DVVMTQSPLSLPVTLGQPASISCRSSQSLLDSDGATYLYWFQQRPGQSPRRLIYLVSTLGSGVPDRFSGSGSGTDFTLKISRVEAEDVGVYYCMQLTHWPYTFGQGTKLEIK
[8]
  Bmax: 0.3
[9]
  Bmax: 2.6
[10]
  Bmax: 1.08

B4: 5C4 (antibody, V domains shown)
VH: QVQLVQSGAEVKKPGSSVKVSCKASGFTFTTYYISWVRQAPGQGLEYLGYINMGSGGTNYNEKFKGRVTITADKSTSTAYMELSSLRSEDTAVYYCAILGYFDYWGQGTMVTVSS
VL: DVVMTQSPLSLPVTLGQPASISCRSSQSLLDSDGQTYLYWFQQRPGQSPRRLIYLVSTLGSGVPDRFSGSGSGTDFTLKISRVEAEDVGVYYCMQLTHEPYTFGQGTKLEIK
[8]
  Bmax: 0.164
[9]
  Bmax: 2.65
[10]
  Bmax: 0.258

B5: 1H6 (antibody, human IgG4, V domains shown)
VH: QVQLVQSGAEVKKPGSSVKVSCKASGFTFTTYYISWVRQAPGQGLEYLGYINMGSGGTNYNEKFKGRVTITADKSTSTAYMELSSLRSEDTAVYYCAILGYFDYWGQGTMVTVSS
VL: DVVMTQSPLSLPVTLGQPASISCRSSQSLLDSDGGTYLYWFQQRPGQSPRRLIYLVSTLGSGVPDRFSGSGSGTDFTLKISRVEAEDVGVYYCMQLTHWPYTFGQGTKLEIK
[1]
  EC50: 0.28 nM
[2]
  Kd: 0.215 nM
[3]
  binding result: no binding
[4]
  Kd: 9.37 nM
  koff: 0.003 s⁻¹
  kon: 320000 M⁻¹ s⁻¹
[5]
  Kd: 14.3 nM
  koff: 0.00918 s⁻¹
  kon: 644000 M⁻¹ s⁻¹
[6]
  EC50: 15.1 nM
[7]
  EC50: 2.64 nM
[8]
  Bmax: 0.221
[9]
  Bmax: 3.35
[10]
  Bmax: 0.317
[11]
  IC50: 20.4 nM
[12]
  IC50: 2.22 nM
[13]
  IC50: 8.77 nM
[14]
  IC50: 17.6 nM
[15]
  binding result: no binding
[16]
  EC50: 0.34 nM
[17]
  EC50: 0.2 nM
[18]
  Kd: 53.9 nM

B6: L1I (antibody, V domains shown)
VH: QVQLVQSGAEVKKPGSSVKVSCKASGFTFTTYYISWVRQAPGQGLEYLGYINMGSGGTNYNEKFKGRVTITADKSTSTAYMELSSLRSEDTAVYYCAIIGYFDYWGQGTMVTVSS
VL: DVVMTQSPLSLPVTLGQPASISCRSSQSLLDSDGNTYLYWFQQRPGQSPRRLIYLVSTLGSGVPDRFSGSGSGTDFTLKISRVEAEDVGVYYCMQLTHAPYTFGQGTKLEIK
notes: also called L11
[9]
  Bmax: 1.05
[10]
  Bmax: 0.0517

B7: 8C10 (antibody, V domains shown)
VH: QVQLVQSGAEVKKPGSSVKVSCKASGFTFTTYYISWVRQAPGQGLEYLGYINMGSGGTNYNEKFKGRVTITADKSTSTAYMELSSLRSEDTAVYYCAIIGYFDYWGQGTMVTVSS
VL: DVVMTQSPLSLPVTLGQPASISCRSSQSLLDSDGQTYLYWFQQRPGQSPRRLIYLVSTLGSGVPDRFSGSGSGTDFTLKISRVEAEDVGVYYCMQLTHENYTFGQGTKLEIK
[8]
  Bmax: 0.437
[9]
  Bmax: 2.31
[10]
  Bmax: 1.11

B8: A6W (antibody, V domains shown)
VH: QVQLVQSGAEVKKPGSSVKVSCKASGFTFTTYYISWVRQAPGQGLEYLGYINMGSGGTNYNEKFKGRVTITADKSTSTAYMELSSLRSEDTAVYYCAILGYFDYWGQGTMVTVSS
VL: DVVMTQSPLSLPVTLGQPASISCRSSQSLLDSDGNTYLYWFQQRPGQSPRRLIYLVSTLGSGVPDRFSGSGSGTDFTLKISRVEAEDVGVYYCMQLTHWPYTFGQGTKLEIK
[8]
  Bmax: 0.174
[9]
  Bmax: 2.57
[10]
  Bmax: 0.0787
